The experiment has as its target H chains of human 7S γ-globulin reduced without alkylation (human). Description: co-sedimentation.

“L chains of human 7S γ-globulin reduced without alkylation (natural protein)” had a yield of doubly labeled 7S material of 30 per cent.

Values taken from article PMC2137744.
